{"source": "patent US8614369B2", "about": "“Enzymes involved in triterpene synthesis” (Plant Bioscience Limited, priority 2007, dated 2013)", "experiment": "Activity of AsGT2 towards salicylate (radioactive TLC assay and LC-MS assay)", "assay_type": "biochemical", "design": "key: A “+” denotes activity", "conditions": "acceptor substrate salicylate; sugar donor L-arabinose; recombinant AsGT2 expressed in E. coli", "description": "Radioactive assays with a complex acceptor substrate were used to detect low level activity with pure or enriched substrates. The assays contained 4 μl ^14C-UDP-glucose, 25 μl 50 mM potassium phosphate buffer pH 7.6, 0.25 μl 100 mM acceptor substrate in DMSO, 5 μl of the dialyzed protein preparation, and 3 μl 10 mM DTT. The reaction proceeded at 28 degrees Celsius for 2.5 hours shaking gently before stopping by the addition of 50 μl chloroform:methanol (2:1). The aqueous phase was extracted three more times with chloroform methanol and the solvent phases were pooled. The extracts were dried down at 60 degrees Celsius and resuspended in 40 μl of chloroform:methanol. The aqueous phase was dried down also and resuspended in water. A silica-gel TLC plate was loaded with 15 μl of the extracts and chromatographed with chloroform:methanol:water (13:6:1) against standards.\nThe acceptor substrates tested were β-amyrin-arabinoside, benzoic acid and salicylic acid. The sugars donors tested were D-glucose and L-arabinose.\nTo confirm the chemical structures of the products visualized by the radioactive assay a non-radioactive LC-MS assay was developed. […] Reactions were stopped by the addition of 100% methanol, which was then evaporated from the reaction at 50 degrees Celsius, and were analysed by LC/MS/MS using reversed-phase chromatography. […]"}
{"molecule": "AsGT2: family 1 glucosyltransferase from Avena strigosa (SEQ ID NO:6), expressed in E. coli and purified (protein, listed as Avena strigosa) MGAEWEHVSDIHVLLLPYPVQGHINPMLQFGKRLAHIGGVGVRCTLAITPYLLRQCQDPCPGAVHLVEISDGFDSAGFEEVGDVAAYLAGMESAGSRTLDELLRSEAEKGRPIHAVVYDAFLQPWVPRVARLHGAACVSFFTQAAAVNVAYSRRVGKIEEGLPAGFEAEDLPTFLTLPLPYQDMLLSQFVGLDAVDHVLVNSFHELQPQESAYMESTWGAKTVGPTVPSAYLDKRITDDVSYGFHLYTPMTATTKAWLDAQPPRSVTYVSFGSMATPGPTEMAEMAEGLHSSGKAFLWVVRASEASKIPDGFQERVGGRGLVVTWVAQLEVLAHGAIGCFVTHCGWNSTMEALGAGVPMVAVPQWSDQPTNAKFVEDVWCVGVRARRDPEGVVRREELERCIREVTGDDKYACNALDWKEKSKRAMSQGGSSDMNITEFLQALRRSRKSYEAKPIEPLLVGLDA", "values": [{"measurement": "Activity of AsGT2 towards Salicylate, L-Ara", "result": "+"}]}
